In the Immune Epitope Database (IEDB):

Tests used:
[1] = target: HLA-B*48:01; assay: IEDB peptide-MHC binding, purified MHC/direct/fluorescence; filed as Kd, often an IC50 or EC50 that approximates it; ≥ and ≤ were set here for values at or beyond the usual limits of such assays
[2] = target: HLA-B*39:01; assay: IEDB peptide-MHC binding, purified MHC/competitive/fluorescence; filed as Kd, often an IC50 or EC50 that approximates it; ≥ and ≤ were set here for values at or beyond the usual limits of such assays; details: source organism: West Nile virus
[3] = target: HLA-B*58:01; assay: IEDB peptide-MHC binding, purified MHC/direct/fluorescence; filed as Kd, often an IC50 or EC50 that approximates it; ≥ and ≤ were set here for values at or beyond the usual limits of such assays
[4] = target: HLA-B*46:01; assay: as above
[5] = target: HLA-B*57:01; assay: as above
[6] = target: HLA-A*02:01; assay: as above; details: source organism: West Nile virus
[7] = target: HLA-B*27:05; assay: as above
[8] = target: HLA-B*18:01; assay: as above
[9] = target: HLA-B*40:01; assay: as above
[10] = target: HLA-A*69:01; assay: as above; details: source organism: West Nile virus
[11] = target: HLA-A*11:01; assay: as above
[12] = target: HLA-A*01:01; assay: as above
[13] = target: HLA-B*15:01; assay: as above
[14] = target: HLA-A*03:01; assay: as above
[15] = target: HLA-B*44:02; assay: as above
[16] = target: HLA-A*31:01; assay: as above
[17] = target: HLA-B*07:02; assay: as above; details: source organism: West Nile virus
[18] = target: HLA-A*29:02; assay: as above
[19] = target: HLA-B*44:03; assay: IEDB peptide-MHC binding, purified MHC/competitive/radioactivity; filed as Kd, often an IC50 or EC50 that approximates it; ≥ and ≤ were set here for values at or beyond the usual limits of such assays
[20] = target: HLA-B*18:01; assay: as above
[21] = target: HLA-B*40:01; assay: as above
[22] = target: HLA-B*44:02; assay: as above
[23] = target: HLA-B*45:01; assay: as above
[24] = target: HLA-B*40:02; assay: as above
[25] = target: HLA-B*08:01; assay: IEDB peptide-MHC binding, purified MHC/direct/fluorescence; filed as Kd, often an IC50 or EC50 that approximates it; ≥ and ≤ were set here for values at or beyond the usual limits of such assays; details: source organism: Mycobacterium tuberculosis variant bovis BCG str. Pasteur 1173P2
[26] = source organism: West Nile virus
[27] = source organism: SARS coronavirus Tor2
[28] = source organism: Mycobacterium tuberculosis variant bovis BCG str. Pasteur 1173P2
[29] = source organism: Mammarenavirus juninense
[30] = source organism: Mammarenavirus brazilense

For RKHGGMLVR, the Kd ([1]; source organism: Dengue virus 1 Singapore/S275/1990) was ≥ 20 µM.

For VHREWFMDL, the Kd [2] was 1.48 µM, the Kd [3, 26] was ≥ 20 µM and the Kd [4, 26] was ≥ 20 µM. For the same sequence, the Kd [5, 26] was ≥ 20 µM, the Kd [6] was ≥ 20 µM and the Kd [7, 26] was ≥ 20 µM. The Kd [8, 26] was ≥ 20 µM, the Kd [1, 26] was ≥ 20 µM and the Kd [9, 26] was ≥ 20 µM. The Kd [10] was ≥ 20 µM, the Kd [11, 26] was ≥ 20 µM and the Kd [12, 26] was ≥ 20 µM. For the same sequence, the Kd [13, 26] was ≥ 20 µM, the Kd [14, 26] was ≥ 20 µM and the Kd [15, 26] was ≥ 20 µM. The Kd [16, 26] was ≥ 20 µM and the Kd [17] was ≥ 20 µM.

LTDSDSPTY was tested, and the Kd ([12]; source organism: Mycobacterium tuberculosis) was 0.025 µM and the Kd ([18]; source organism: Mycobacterium tuberculosis str. Haarlem) was 0.14 µM.

FEKAKIEVL was tested, and the Kd ([1]; source organism: Campylobacter jejuni subsp. jejuni 81-176) was ≥ 20 µM.

FEYISDAFSL showed a Kd [19, 27] of 1.45 µM, a Kd [20, 27] of 1.8 µM and a Kd [21, 27] of 0.00166 µM. The Kd [22, 27] was 3.21 µM, the Kd [23, 27] was 6.38 µM and the Kd [24, 27] was 0.838 µM.

LEGSVRVVT was tested, and the Kd [19, 27] was 0.986 µM, the Kd [20, 27] was 16.9 µM and the Kd [21, 27] was 0.795 µM. It also gave a Kd [22, 27] of 0.951 µM, a Kd [23, 27] of 0.0591 µM and a Kd [24, 27] of 0.0699 µM.

With HPTSRRELL the Kd [3, 28] was ≥ 20 µM, the Kd [4, 28] was ≥ 20 µM and the Kd [5, 28] was ≥ 20 µM. For the same sequence, the Kd [7, 28] was ≥ 20 µM, the Kd [8, 28] was ≥ 20 µM and the Kd [1, 28] was ≥ 20 µM. For the same sequence, the Kd [9, 28] was ≥ 20 µM, the Kd [11, 28] was ≥ 20 µM and the Kd [12, 28] was ≥ 20 µM. The Kd [13, 28] was ≥ 20 µM, the Kd [25] was 8.77 µM and the Kd [14, 28] was ≥ 20 µM. For the same sequence, the Kd [15, 28] was ≥ 20 µM, the Kd [16, 28] was ≥ 20 µM and the Kd [18, 28] was ≥ 20 µM.

Work on KEQLQLLMPL yielded a Kd [19, 27] of 0.0491 µM, a Kd [20, 27] of 0.184 µM and a Kd [21, 27] of 0.157 µM. The Kd [22, 27] was 0.269 µM, the Kd [23, 27] was 0.121 µM and the Kd [24, 27] was 0.00523 µM.

With GEVLSLDKL the Kd [19, 27] was 2.33 µM, the Kd [20, 27] was ≥ 77.5 µM and the Kd [21, 27] was 0.0109 µM. The Kd [22, 27] was 7.88 µM, the Kd [23, 27] was 17.3 µM and the Kd [24, 27] was 0.0307 µM.

For DELGNILSVY, the Kd [19, 29] was 1.21 µM, the Kd [20, 29] was 0.00898 µM and the Kd [21, 29] was ≥ 69.5 µM. For the same sequence, the Kd [22, 29] was 7.44 µM, the Kd [23, 29] was ≥ 70 µM and the Kd [24, 29] was 14.1 µM.

In the case of RRFLEPVGK, the Kd [1, 26] is reported as ≥ 20 µM.

EDQGNPIVL was tested, and the Kd [19, 30] was ≥ 78.1 µM, the Kd [20, 30] was ≥ 52.1 µM and the Kd [21, 30] was 4.86 µM. For the same sequence, the Kd [22, 30] was ≥ 36.6 µM, the Kd [23, 30] was 14.9 µM and the Kd [24, 30] was ≥ 24.2 µM.
